Measured values as given in patent US12416034B2, “Recombinant production of steviol glycosides” (EVOLVA SA, priority 2011, dated 2025).

Tests used:
[1] = RebD solubility in water; assay type: physicochemical; conditions: 30° C.
Method: The solubility of RebD was assessed by making several different solutions of RebD in water were made and incubated at 30° C. for 72 hours. […] One with skill in the art will recognize that the solubility can be influenced by any number of conditions such as pH, temperature, or different matrices.

[2] = Enzyme kinetics with UDP-glucose as substrate; assay type: biochemical
Method: (§1) A series of experiments were performed to determine kinetic parameters of EUGT11 and 91D2e-b. For both enzymes, 100 μM RebA, 300 μM UDP-glucose, and 10 U/mL Alkaline Phosphatase (Fermentas/Thermo Fisher, Waltham, MA) were used in the reactions. For EUGT11, the reactions were performed at 37° C. using 100 mM Tris-HCl, pH 7, and 2% enzyme. For 91D2e-b, the reactions were performed at 30° C. using 20 mM Hepes-NaOH, pH 7.6, 20% (by volume) enzyme. The initial velocities (V0) were calculated in the linear range of a product versus time plot.
(§2) Vmax and KM parameters were determined from the curve-fit Lineweaver-Burk data, calculated from the x- and y intercepts (x=0, y=1/Vmax) and (y=0, x=−1/KM). Additionally, the same parameters also were calculated by a non-linear least squares regression, using the SOLVER function in Excel. The results obtained with both methods for EUGT11 and RebA are presented in Table 12, along with all the kinetic parameters of this example. Kcat is calculated based on Vmax divided by the approximate amount of protein in the assay.
In order to investigate the influence of UDP-glucose concentration in the glycosylation reaction, as well as the affinity of EUGT11 for UDP-glucose, similar kinetics analysis were performed. EUGT11 was incubated with increasing amounts of UDP-glucose (20 μM, 50 μM, 100 μM, and 200 μM), maintaining an excess of RebA (500 μM).
(§3) In the case of UGT91D2e-b, RebA concentrations assayed were 50 μM, 100 μM, 200 μM, 300 μM, 400 μM and 500 μM. Concentration of UDP-glucose was always three times the concentration of RebA and incubation was performed at 30° C., in the reaction conditions described above for UGT91D2e-b. Additionally, kinetic parameters of UGT91D2e-b towards UDP-glucose were determined. UGT91D2e-b was incubated with increasing amounts of UDP-glucose (30 μM, 50 μM, 100 μM, and 200 μM), maintaining an excess of RebA (1500 μM). incubation was performed at 30° C., in optimal conditions for UGT91D2e-b.

[3] = Denaturation temperature by differential scanning calorimetry (DSC); assay type: physicochemical; conditions: 6HIS-purified enzymes, 91D2e-b GST-purified
Method: To assess the thermal stability of EUGT11 and to compare it with the other UGTs in the steviol glycosylation pathway, denaturation temperatures of the proteins were determined using differential scanning calorimetry (DSC). Use of DSC thermograms to estimate denaturation temperatures, TD, is described, for example, by E. Freire in Methods in Molecular Biology 1995, Vol. 40 191-218. DSC was performed (using 6HIS-purified EUGT11, yielding an apparent TD of 39° C.; while when GST-purified 91D2e-b was used, the measured TD was 79° C. For reference, the measured TD when using 6HIS-purified UGT74G1, UGT76G1 and UGT85C2 was 86° C. in all cases. One of skill in the art will recognize that enzyme immobilization or addition of thermal protectants can be added to the reactions to improve stability of the protein. Non-limiting examples of thermal protectants include trehalose, glycerol, ammonium sulphate, betaine, trimethylamine oxide, and proteins.

[4] = Screening by LC-MS of E. coli lysates, rubusoside as substrate; assay type: biochemical
Method: (§4) To analyze the approximately 1600 mutant clones of UGT91D2e, the E. coli transformants were grown overnight at 30° C. in 1 ml of NZCYM containing ampicillin (100 mg/1) and chloramphenicol (33 mg/1), in 96-well format. The next day, 150 μl of each culture was inoculated into 3 ml NZCYM containing ampicillin (100 mg/1), chloramphenicol (33 mg/1), arabinose 3 mM, IPTG 0.1 mM and ethanol 2% v/v, in 24-well format, and incubated at 20° C. and 200 rpm for ˜20 h. The following day, cells were spun down and pellets were resuspended in 100 μl of lysis buffer containing 10 mM Tris-HCl pH 8, 5 mM MgCl2, 1 mM CaCl2) and complete mini protease inhibitor EDTA-free (3 tablets/100 ml) (Hoffmann-La Roche, Basel, Switzerland) and frozen −80° C. for at least 15 minutes to promote cell lysis. […] In each case, the resulting compounds, stevioside or rebaudioside D (rebD), were measured by LC-MS. Results were analyzed in comparison with the stevioside or rebD produced by the lysates expressing the corresponding controls (91D2e, 91D2e-b, EUGT11 and the empty plasmid). […]
(§5) Half of the 1600 clones and the corresponding controls were assayed for their capacity to glycosylate rubusoside and rebaudiosideA. Stevioside and RebD were quantified by LC-MS. […]

[5] = Screening by LC-MS of E. coli lysates, rebaudioside A as substrate; assay type: biochemical; conditions: RebA substrate
Method: as §4, §5

[6] = Enzyme kinetics with RebA as substrate; assay type: biochemical; conditions: Reb A
Method: as §1
To first investigate the linearity intervals, initial time-courses were done for each enzyme. EUGT11 was assayed at 37° C. for 48 h at initial concentrations of 100 μM RebA and 300 μM UDP-glucose. UGT91D2e-b was assayed at 37° C. for 24 h at initial concentrations of 200 μM RebA and 600 μM UDP-glucose. Based on these range-finding studies, it was determined that the initial 10 minutes in the case of EUGT11, and the initial 20 minutes in UGT91D2e-b would be in the linear range with respect to product formation, and therefore initial velocities of each reaction were calculated in those intervals. In the case of EUGT11, RebA concentrations assayed were 30 μM, 50 μM, 100 μM, 200 μM, 300 μM and 500 μM. Concentration of UDP-glucose was always three times the concentration of RebA and incubation was performed at 37° C. By plotting the calculated V0 as a function of the substrate concentrations, Michaelis-Menten curves were generated. By plotting the reciprocal of V0 and the reciprocal of [S], a Lineweaver-Burk graphic was obtained, with y=339.85x+1.8644; R^2=0.9759.
as §2, §3

[7] = Codon optimized UGT cell lysate assay, steviol as substrate; assay type: biochemical; conditions: 0.25 mM steviol, 24 hours, 30° C.
Method: The wild-type, DNA 2.0, and GeneArt sequences were assayed for in vitro activity to compare reactivity on substrates in the steviol glycosides pathway. UGTs were inserted in high copy (2p) vectors and expressed from a strong constitutive promoter (GPD1) (vectors P423-GPD, P424-GPD, P425-GPD, and P426-GPD). The plasmids were transformed individually into the universal Watchmaker strain, EFSC301 (described in Example 3 of WO2011/153378) and assays were carried out using cell lysates prepared from equal amount of cells (8 OD units). For the enzymatic reactions, 6 μL of each cell lysate were incubated in a 30 μL reaction with 0.25 mM steviol (final concentration) to test UGT74G1 and UGT85C2 clones, and with 0.25 mM 13-SMG (13SMG) (final concentration) to test 76G1 and 91D2e UGTs. Assays were carried out for 24 hours at 30° C. Prior to LC-MS analysis, one volume of 100% DMSO was added to each reaction, samples were centrifuged at 16000 g, and the supernatants analysed.

concentration soluble in water initially ([1]; 72 hours) [µM]	concentration stable for longer periods of time ([1]; water) [µM]	Molecule	Kcat ([2]; Lineweaver-Burk plot) [s⁻¹]	Km ([2]; Lineweaver-Burk plot) [µM]	Vmax ([2]; Lineweaver-Burk plot) [µM/min]	Kcat ([2]; Nonlinear Least Square Fit) [s⁻¹]	Km ([2]; Nonlinear Least Square Fit) [µM]	Vmax ([2]; Nonlinear Least Square Fit) [µM/min]	denaturation temperature TD [3] [°C]	stevioside formed by lysates [4] [µM]	RebD formed by lysates [5] [µM]	Kcat ([6]; Lineweaver-Burk plot) [s⁻¹]	Km ([6]; Lineweaver-Burk plot) [µM]	Vmax ([6]; Lineweaver-Burk plot) [µM/min]	Kcat ([6]; Nonlinear Least Square Fit) [s⁻¹]	Km ([6]; Nonlinear Least Square Fit) [µM]	Vmax ([6]; Nonlinear Least Square Fit) [µM/min]	activity of GeneArt lysate as a percentage of the wild-type enzyme [7]
≤ 1000	≤ 500	C=C1C[C@@]23CC[C@H]4[C@@](C)(CCC[C@@]4(C)C(=O)O[C@@H]4O[C@H](CO)[C@@H](O)[C@H](O)[C@H]4O[C@@H]4O[C@H](CO)[C@@H](O)[C@H](O)[C@H]4O)[C@@H]2CC[C@]1(O[C@@H]1O[C@H](CO)[C@@H](O)[C@H](O[C@@H]2O[C@H](CO)[C@@H](O)[C@H](O)[C@H]2O)[C@H]1O[C@@H]1O[C@H](CO)[C@@H](O)[C@H](O)[C@H]1O)C3 [RebD, Rebaudioside D]	–	–	–	–	–	–	–	–	–	–	–	–	–	–	–	–
–	–	91D2e-b: UGT91D2e double mutant C631A/T857C, amino acid modifications L211M and V286A (protein, listed as Stevia rebaudiana) MATSDSIVDDRKQLHVATFPWLAFGHILPYLQLSKLIAEKGHKVSFLSTTRNIQRLSSHISPLINVVQLTLPRVQELPEDAEATTDVHPEDIPYLKKASDGLQPEVTRFLEQHSPDWIIYDYTHYWLPSIAASLGISRAHFSVTTPWAIAYMGPSADAMINGSDGRTTVEDLTTPPKWFPFPTKVCWRKHDLARLVPYKAPGISDGYRMGMVLKGSDCLLSKCYHEFGTQWLPLLETLHQVPVVPVGLLPPEIPGDEKDETWVSIKKWLDGKQKGSVVYVALGSEALVSQTEVVELALGLELSGLPFVWAYRKPKGPAKSDSVELPDGFVERTRDRGLVWTSWAPQLRILSHESVCGFLTHCGSGSIVEGLMFGHPLIMLPIFGDQPLNARLLEDKQVGIEIPRNEEDGCLTKESVARSLRSVVVEKEGEIYKANARELSKIYNDTKVEKEYVSQFVDYLEKNARAVAIDHES	0.00317	41.9	0.18	0.0033	45.1	0.19	79	> 10	> 1.5	0.00683	1580	0.44	0.00533	1150	0.34	–
–	–	UGT74G1: S. rebaudiana UGT, SEQ ID NO:1 (protein, listed as Stevia rebaudiana) MAEQQKIKKSPHVLLIPFPLQGHINPFIQFGKRLISKGVKTTLVTTIHTLNSTLNHSNTTTTSIEIQAISDGCDEGGFMSAGESYLETFKQVGSKSLADLIKKLQSEGTTIDAIIYDSMTEWVLDVAIEFGIDGGSFFTQACVVNSLYYHVHKGLISLPLGETVSVPGFPVLQRWETPLILQNHEQIQSPWSQMLFGQFANIDQARWVFTNSFYKLEEEVIEWTRKIWNLKVIGPTLPSMYLDKRLDDDKDNGFNLYKANHHECMNWLDDKPKESVVYVAFGSLVKHGPEQVEEITRALIDSDVNFLWVIKHKEEGKLPENLSEVIKTGKGLIVAWCKQLDVLAHESVGCFVTHCGFNSTLEAISLGVPVVAMPQFSDQTTNAKLLDEILGVGVRVKADENGIVRRGNLASCIKMIMEEERGVIIRKNAVKWKDLAKVAVHEGGSSDNDIVEFVSELIKA	–	–	–	–	–	–	86	–	–	–	–	–	–	–	–	equivalent activity
